B1: Ib_S1_P4E.1_K4.1_C4.1_H4.1_[A4T]_A4.1_F4.1_[A9G]_T4.1 (ssRNA)
RNA: UCUCUUUGUUUAUUGUCUCUU
B2: Ic_S4_P3E.1_K3.1_C3.1_H3.1_A3.1_[T5C]_[A6T]_F3.1_[T7C]_[A8C]_T3.1 (ssRNA)
RNA: UUUGACAACUGAUCGUUCUUUCUUGUACUCCUUCUUUCUCGAUCAGUUGUCUUU
B3: Ic_S4_P3E.1_K3.1_C3.1_H3.1_A3.1_[A6C]_F3.1_[T7C]_[A8T]_T3.1 (ssRNA)
RNA: B2 RNA with C28U, U29C, C31U
B4: Ic_S4_P3E.1_K3.1_C3.1_H3.1_A3.1_[A6C]_F3.1_[T7A]_[A8C]_T3.1 (ssRNA)
RNA: B2 RNA with C28U, U29C, C30A
B5: Ic_S4_P3E.1_K3.1_C3.1_H3.1_A3.1_[T5A]_[A6C]_F3.1_[T7A]_[A8C]_T3.1 (ssRNA)
RNA: B2 RNA with C28A, U29C, C30A
B6: Ic_S4_P3E.1_K3.1_C3.1_H3.1_A3.1_[T5A]_[A6C]_F3.1_[T7G]_[A8T]_T3.1 (ssRNA)
RNA: B2 RNA with C28A, U29C, C30G, C31U
B7: Ic_S4_P3E.1_K3.1_C3.1_H3.1_A3.1_[T5C]_F3.1_[A8T]_T3.1 (ssRNA)
RNA: B2 RNA with U29A, C30U, C31U
B8: Ic_S4_P3E.1_K3.1_C3.1_H3.1_A3.1_[T5C]_F3.1_[T7C]_[A8T]_T3.1 (ssRNA)
RNA: B2 RNA with U29A, C31U
B9: Ic_S4_P3E.1_K3.1_C3.1_H3.1_A3.1_[T5C]_F3.1_[T7A]_T3.1 (ssRNA)
RNA: B2 RNA with U29A, C30A, C31A
B10: Ic_S4_P3E.1_K3.1_C3.1_H3.1_A3.1_[A6C]_F3.1_[T7G]_[A8T]_T3.1 (ssRNA)
RNA: B2 RNA with C28U, U29C, C30G, C31U
B11: Ic_S4_P3E.1_K3.1_C3.1_H3.1_A3.1_[T5A]_[A6T]_F3.1_[T7A]_T3.1 (ssRNA)
RNA: B2 RNA with C28A, C30A, C31A
B12: Ic_S4_P3E.1_K3.1_C3.1_H3.1_A3.1_[A6T]_F3.1_[T7G]_[A8G]_T3.1 (ssRNA)
RNA: B2 RNA with C28U, C30G, C31G
B13: Ic_S4_P3E.1_K3.1_C3.1_H3.1_A3.1_[T5C]_[A6T]_F3.1_[T7A]_[A8C]_T3.1 (ssRNA)
RNA: B2 RNA with C30A
B14: Ic_S4_P3E.1_K3.1_C3.1_H3.1_A3.1_[A6T]_F3.1_[A8G]_T3.1 (ssRNA)
RNA: B2 RNA with C28U, C30U, C31G
B15: Ic_S4_P3E.1_K3.1_C3.1_H3.1_A3.1_[A6G]_F3.1_[T7C]_[A8T]_T3.1 (ssRNA)
RNA: B2 RNA with C28U, U29G, C31U
B16: Ic_S4_P3E.1_K3.1_C3.1_H3.1_A3.1_[A6T]_F3.1_T3.1 (ssRNA)
RNA: B2 RNA with C28U, C30U, C31A
B17: Ic_S4_P3E.1_K3.1_C3.1_H3.1_A3.1_[A6T]_F3.1_[T7A]_[A8C]_T3.1 (ssRNA)
RNA: B2 RNA with C28U, C30A
B18: Ic_S4_P3E.1_K3.1_C3.1_H3.1_A3.1_[T5C]_[A6T]_F3.1_[T7A]_T3.1 (ssRNA)
RNA: B2 RNA with C30A, C31A
B19: Ic_S4_P3E.1_K3.1_C3.1_H3.1_A3.1_[T5C]_F3.1_[T7C]_[A8C]_T3.1 (ssRNA)
RNA: B2 RNA with U29A
B20: Ic_S4_P3E.1_K3.1_C3.1_H3.1_A3.1_[T5A]_[A6C]_F3.1_[A8T]_T3.1 (ssRNA)
RNA: B2 RNA with C28A, U29C, C30U, C31U
B21: Ic_S4_P3E.1_K3.1_C3.1_H3.1_A3.1_[T5A]_[A6T]_F3.1_T3.1 (ssRNA)
RNA: B2 RNA with C28A, C30U, C31A
B22: Ic_S4_P3E.1_K3.1_C3.1_H3.1_A3.1_[T5A]_[A6T]_F3.1_[T7A]_[A8G]_T3.1 (ssRNA)
RNA: B2 RNA with C28A, C30A, C31G
B23: Ic_S4_P3E.1_K3.1_C3.1_H3.1_A3.1_[T5A]_F3.1_[A8T]_T3.1 (ssRNA)
RNA: B2 RNA with C28A, U29A, C30U, C31U
B24: Ic_S4_P3E.1_K3.1_C3.1_H3.1_A3.1_[T5A]_[A6C]_F3.1_[T7A]_[A8T]_T3.1 (ssRNA)
RNA: B2 RNA with C28A, U29C, C30A, C31U
B25: Ic_S4_P3E.1_K3.1_C3.1_H3.1_A3.1_[T5C]_[A6T]_F3.1_[A8T]_T3.1 (ssRNA)
RNA: B2 RNA with C30U, C31U
B26: Ic_S4_P3E.1_K3.1_C3.1_H3.1_A3.1_[T5A]_[A6T]_F3.1_[A8G]_T3.1 (ssRNA)
RNA: B2 RNA with C28A, C30U, C31G
B27: Ic_S4_P3E.1_K3.1_C3.1_H3.1_A3.1_[A6C]_F3.1_[A8G]_T3.1 (ssRNA)
RNA: B2 RNA with C28U, U29C, C30U, C31G
B28: Ic_S4_P3E.1_K3.1_C3.1_H3.1_A3.1_[T5A]_[A6C]_F3.1_[A8C]_T3.1 (ssRNA)
RNA: B2 RNA with C28A, U29C, C30U
B29: Ic_S4_P3E.1_K3.1_C3.1_H3.1_A3.1_[T5A]_[A6T]_F3.1_[T7C]_[A8T]_T3.1 (ssRNA)
RNA: B2 RNA with C28A, C31U
B30: Ic_S4_P3E.1_K3.1_C3.1_H3.1_A3.1_[A6C]_F3.1_[T7A]_[A8T]_T3.1 (ssRNA)
RNA: B2 RNA with C28U, U29C, C30A, C31U
B31: Ic_S4_P3E.1_K3.1_C3.1_H3.1_A3.1_[T5C]_[A6T]_F3.1_[A8G]_T3.1 (ssRNA)
RNA: B2 RNA with C30U, C31G
B32: Ic_S4_P3E.1_K3.1_C3.1_H3.1_A3.1_[T5A]_[A6T]_F3.1_[T7A]_[A8C]_T3.1 (ssRNA)
RNA: B2 RNA with C28A, C30A
B33: Ic_S4_P3E.1_K3.1_C3.1_H3.1_A3.1_[A6T]_F3.1_[T7A]_[A8G]_T3.1 (ssRNA)
RNA: B2 RNA with C28U, C30A, C31G
B34: Ic_S4_P3E.1_K3.1_C3.1_H3.1_A3.1_[T5C]_[A6T]_F3.1_[T7C]_[A8T]_T3.1 (ssRNA)
RNA: B2 RNA with C31U
B35: Ic_S4_P3E.1_K3.1_C3.1_H3.1_A3.1_[A6C]_F3.1_[T7C]_[A8G]_T3.1 (ssRNA)
RNA: B2 RNA with C28U, U29C, C31G
B36: Ic_S4_P3E.1_K3.1_C3.1_H3.1_A3.1_[A6G]_F3.1_T3.1 (ssRNA)
RNA: B2 RNA with C28U, U29G, C30U, C31A
B37: Ic_S4_P3E.1_K3.1_C3.1_H3.1_A3.1_[T5C]_[A6T]_F3.1_[T7C]_T3.1 (ssRNA)
RNA: B2 RNA with C31A
B38: Ic_S4_P3E.1_K3.1_C3.1_H3.1_A3.1_[T5C]_F3.1_[T7G]_[A8T]_T3.1 (ssRNA)
RNA: B2 RNA with U29A, C30G, C31U
B39: Ic_S4_P3E.1_K3.1_C3.1_H3.1_A3.1_[A6C]_F3.1_[T7G]_[A8G]_T3.1 (ssRNA)
RNA: B2 RNA with C28U, U29C, C30G, C31G
B40: Ib_S1_P4E.1_K4.1_C4.1_H4.1_[A4C]_A4.1_F4.1_[A9G]_T4.1 (ssRNA)
RNA: UCUCUUUGUCUAUUGUCUCUU
B41: Ib_S1_P4E.1_K4.1_C4.1_H4.1_[A4G]_A4.1_F4.1_[A9C]_T4.1 (ssRNA)
RNA: UCUCUUUGUGUAUUCUCUCUU
B42: Ib_S1_P4E.1_K4.1_C4.1_H4.1_[A4G]_A4.1_F4.1_[A9G]_T4.1 (ssRNA)
RNA: UCUCUUUGUGUAUUGUCUCUU

Where a chain is given by its changes, count along the chain named. In names and notes the source's numbering stands.

This data set deals with T1, PUF4 RNA-binding domain (Saccharomyces cerevisiae, UniProt P25339 537-888).
T1 sequence: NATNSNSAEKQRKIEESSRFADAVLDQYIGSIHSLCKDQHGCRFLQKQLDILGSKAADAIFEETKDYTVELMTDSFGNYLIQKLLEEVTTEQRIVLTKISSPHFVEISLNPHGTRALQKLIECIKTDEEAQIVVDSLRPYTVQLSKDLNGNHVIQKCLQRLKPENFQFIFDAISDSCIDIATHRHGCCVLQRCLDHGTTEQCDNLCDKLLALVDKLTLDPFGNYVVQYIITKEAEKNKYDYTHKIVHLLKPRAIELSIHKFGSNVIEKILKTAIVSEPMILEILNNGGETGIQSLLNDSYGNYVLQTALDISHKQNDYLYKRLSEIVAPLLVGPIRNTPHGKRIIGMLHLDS
In words: Mg; RNA-MaP; 20 mM Na-HEPES pH 7.4, 30 mM KOAc, 0.75 mM MgCl2, 0.1% Tween-20, 5% glycerol, 0.1 mg/mL BSA, 2 mM DTT; 25 C; 0.0125-409.6 nM protein. The settings on record: tags: N-His6-TEV cleaved; C-SNAP kept, Cy3B-labelled; label: tethered on chip by stalled RNA polymerase.
As to B1, the Kd worked out at 163 nM.

The molecule B2 had a Kd of 120 nM.

On to B3, for which the Kd was 27.6 nM.

The molecule B4 had a Kd of 80.4 nM.

For B5, the Kd came out at 144 nM.

B6 showed a Kd of 270 nM.

In the case of B7, the affinity, expressed as Kd, was 2.28 nM.

Regarding B8, the affinity, expressed as Kd, was 5.34 nM.

As for B9, the Kd worked out at 41.6 nM.

Molecule B10 returned a Kd of 178 nM.

B11 registered a Kd of 126 nM.

With B12, the equilibrium dissociation constant (Kd) amounted to 2130 nM.

B13: the affinity, expressed as Kd, was 89.8 nM.

In turn, B14 had a Kd of 46.7 nM.

B15: the affinity, expressed as Kd, was 54.5 nM.

Molecule B16 showed a Kd of 15.3 nM.

Take B17: the Kd stood at 123 nM.

B18 gave a Kd of 46.5 nM.

The molecule B19 had a Kd of 26.4 nM.

In turn, B20 gave a dissociation constant Kd of 21.6 nM.

For B21, the Kd stood at 65.6 nM.

B22 had a Kd of 1240 nM.

On to B23, for which the Kd turned out to be 19.3 nM.

B24 came in with a Kd of 15.1 nM.

B25 registered a Kd of 10.1 nM.

Take B26: binding was characterised by a dissociation constant (Kd) of 220 nM.

The molecule B27 gave a Kd of 23.4 nM.

Consider B28, for which the Kd worked out at 78.8 nM.

B29: the Kd was determined as 18.3 nM.

Consider B30, for which the Kd stood at 8.55 nM.

In turn, B31 returned a Kd of 103 nM.

For B32, the Kd was 226 nM.

Consider B33, for which the Kd stood at 944 nM.

B34 gave a Kd of 12.3 nM.

B35 yielded a Kd of 392 nM.

B36 returned a Kd of 27.4 nM.

Turning to B37, binding was characterised by a dissociation constant (Kd) of 108 nM.

In the case of B38, binding was put at a Kd of 15.3 nM.

Turning to B39, binding was characterised by a dissociation constant (Kd) of 1930 nM.

B40: the affinity, expressed as Kd, was 569 nM.

In the case of B41, the Kd worked out at 40.4 nM.

For B42, binding was characterised by a dissociation constant (Kd) of 18.3 nM.

By Kd is commonly meant the equilibrium constant for the complex coming apart. High values mean lower affinity, low ones higher affinity.

These data come from paper PMC9352680, “A comprehensive thermodynamic model for RNA binding by the Saccharomyces cerevisiae Pumilio protein PUF4”.
